Reference: patent US20230167423A1, “RING NUCLEASE” (priority 2019, published 2023)
“Also recorded” adds a separate entry of the source. Read-outs that look alike come from different tables or passages of the source.

How the values were obtained:
cA4 [1] = experiment: Radiolabelled cA4 cleavage assay, single turnover kinetics; type: biochemical; details: for cA4 cleavage / ring nuclease activity in vitro: 37° C., recombinant protein (FIG. 5); for cA4 cleavage single turnover rate constant: 50° C., 4 μM protein dimer, Csx1 buffer
[2] = tested on: recombinant type III CRISPR system from Mycobacterium tuberculosis; type: cell-based, Escherichia coli
[3] = tested on: HEPN ribonuclease StCsm6′; experiment: cA6 degradation, deactivation of cA6-activated HEPN ribonuclease StCsm6′; type: biochemical, S. thermophilus
Method: Ring nuclease (Tsac_2833, 2 μM dimer) was incubated with the indicated concentration of cA6 for 60 min at 37° C. […] Control c1 is RNA in the absence of protein, c2 is RNA incubated with Tsac_2833 and c3 is RNA incubated with StCsm6′ in the absence of cA6 activator. vRN—ring nuclease.
Ring nuclease (SIRV1_114a, 2 μM; labelled “vRN”) was incubated with the indicated concentration of cA6 for 20 or 60 min at 70° C. and cooled on ice for 5 min.
When investigating cA6 degradation capacity, THSA-485A Tsac_2833 (2 μM dimer) was incubated with cA6 (50-0.5 μM) for 20 min or 60 min at 37° C. prior to adding 0.5 μM dimer StCsm6′ and 50 nM radio-labelled RNA A1. Reactions were then left to proceed for 60 min at 37° C. before quenching reactions by phenol-chloroform extraction and visualising RNA degradation by phosphor imaging following denaturing PAGE.
A deactivation assay was carried out using the S. thermophilus HEPN ribonuclease StCsm6′, a ribonuclease activated by cA6.

cyclic-CAMP = experiment: Substrate specificity of ring nuclease by TLC: cyclic-CAMP; type: biochemical; details: multiple-turnover, 49 μM protein, 450 μM substrate, 70° C.
Method: (§1) The reactions were then deproteinised by phenol-chloroform extraction followed by chloroform extraction and products separated by TLC. Substrate degradation was visualised and imaged under short-wave ([…]) UV light.

cyclic-di-AMP = experiment: Substrate specificity of ring nuclease by TLC: cyclic-di-AMP; type: biochemical; details: multiple-turnover, 49 μM protein, 450 μM substrate, 70° C.
Method: as §1

cA4 [4] = experiment: Substrate specificity of ring nuclease by TLC: cA4; type: biochemical; details: multiple-turnover, 49 μM protein, 450 μM substrate, 70° C.
Method: as §1

cA6 = experiment: Substrate specificity of ring nuclease by TLC: cA6; type: biochemical; details: multiple-turnover, 49 μM protein, 450 μM substrate, 70° C.
Method: as §1

cyclic-AMP = experiment: Substrate specificity of ring nuclease by TLC: cyclic-AMP; type: biochemical; details: multiple-turnover, 49 μM protein, 450 μM substrate, 70° C.
Method: as §1

[5] = target: T1, HEPN family ribonuclease Csx1 (Saccharolobus solfataricus, UniProt Q97YD5); experiment: Deactivation of HEPN nuclease Csx1 in coupled assay with Csm complex and A26 RNA target; type: biochemical, Sulfolobus solfataricus
T1 sequence (Q97YD5 1-377): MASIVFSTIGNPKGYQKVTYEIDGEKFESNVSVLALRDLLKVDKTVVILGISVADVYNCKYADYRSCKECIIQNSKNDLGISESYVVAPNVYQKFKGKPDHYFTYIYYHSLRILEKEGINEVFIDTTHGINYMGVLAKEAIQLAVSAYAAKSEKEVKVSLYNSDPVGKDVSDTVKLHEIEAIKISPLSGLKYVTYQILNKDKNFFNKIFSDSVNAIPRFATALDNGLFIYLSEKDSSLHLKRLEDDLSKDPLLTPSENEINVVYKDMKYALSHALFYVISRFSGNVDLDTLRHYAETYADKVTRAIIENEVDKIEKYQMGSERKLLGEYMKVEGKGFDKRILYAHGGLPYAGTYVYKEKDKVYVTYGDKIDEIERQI
Method: FIG. 4. Comparison of the kinetics of the ring nucleases disclosed herein and cellular ring nucleases in deactivating the type III CRISPR defence. • a) Top panel is a phosphor image of denaturing polyacrylamide gel electrophoresis showing activation of HEPN family ribonuclease Csx1 (0.5 μM dimer) and consequent radioactively labelled RNA A1 cleavage in a coupled assay containing type III Csm CRISPR complex carrying A26 CRISPR RNA when challenged by indicated amounts of A26 RNA target to initiate cA4 synthesis. RNA A1 is not a target of Csm. Each set of three lanes after the control (c) reaction with Csx1 and labelled non-target RNA alone, is first in the absence and then the presence the ring nuclease SIRV1 gp29 (labelled “vRN”) or S. solfataricus cellular ring nuclease (cRN) Sso2081 (2 μM dimer), respectively. Whereas the SIRV1 gp29 ring nuclease is able to degrade all cA4 generated with up to 50 nM RNA A26 target, the cellular ring nuclease deactivates Csx1 and protects substrate RNA from degradation only when less than 5 nM A26 RNA target is used to initiate cA4 synthesis. Bottom panel is a phosphor image of thin-layer chromatography with reactions as above but visualizes cA4 production, by a-ATP incorporation, in the presence of indicated amounts of A26 RNA target and absence or presence of either SIRV1 gp29 or cellular ring nuclease. […]

cyclic-di-GMP = experiment: Substrate specificity of ring nuclease by TLC: cyclic-di-GMP; type: biochemical; details: multiple-turnover, 49 μM protein, 450 μM substrate, 70° C.
Method: as §1

cA4 [6] = experiment: cA4 degradation capacity: Csx1 activation by HPLC-purified cA4 and deactivation by ring nuclease; type: biochemical; details: ring nuclease 2 μM dimer, Csx1 0.5 μM dimer
Method: FIG. 4. […] RNA A1 is not a target of Csm. Each set of three lanes after the control (c) reaction with Csx1 and labelled non-target RNA alone, is first in the absence and then the presence the ring nuclease SIRV1 gp29 (labelled “vRN”) or S. solfataricus cellular ring nuclease (cRN) Sso2081 (2 μM dimer), respectively. Whereas the SIRV1 gp29 ring nuclease is able to degrade all cA4 generated with up to 50 nM RNA A26 target, the cellular ring nuclease deactivates Csx1 and protects substrate RNA from degradation only when less than 5 nM A26 RNA target is used to initiate cA4 synthesis. Bottom panel is a phosphor image of thin-layer chromatography with reactions as above but visualizes cA4 production, by a-ATP incorporation, in the presence of indicated amounts of A26 RNA target and absence or presence of either SIRV1 gp29 or cellular ring nuclease. Csx1 deactivation correlated with complete cA4 degradation. • b) Denaturing gel electrophoresis visualising activation of Csx1 (0.5 μM dimer) by indicated amounts of HPLC-purified cA4 (BIOLOG Life Sciences) and its subsequent deactivation when either SIRV1 gp29 ring nuclease (“vRN”) or cellular ring nuclease (2 μM dimer) is present to degrade cA4. The SIRV1 gp29 ring nuclease degrades 100-fold more cA4 than the cellular ring nuclease. Control reactions (c) show RNA incubated with SIRV1 gp29 or Csx1 in the absence of cA4, respectively. […]

B1: THSA-485A Tsac_2833: DUF1874 ring nuclease from Thermoanaerobacterium bacteriophage THSA-485A, SEQ ID NO. 6 (protein, listed as Archael virus)
chain: MFIANAFSLQMLSQFPAHIDIEEVATSAVAKLDLQSAIGHADTAVVLSGILGKDIESNRVNVQLQPGDSLIVAQLMGGRLPEGSTTLPAGFSFKFFKVTVQA
cA4 cleavage / ring nuclease activity in vitro (cA4 [1]): cleave cA4 rapidly
effect on cA4-mediated type III CRISPR immunity (plasmid transformation) [2]: overcomes type III CRISPR immunity
effect on cA4-mediated type III CRISPR immunity (plasmid transformation) ([2]; listed as Tsac_2833): effective in neutralising a cA4-mediated CRISPR defence; also recorded: reduced immunity for cA4-mediated CRISPR defence
cA6 degradation: protection of substrate RNA from StCsm6′ ([3]; 2 μM dimer pre-incubated with cA6 at 37° C.): protection of the substrate RNA; also recorded: Clear inhibition of substrate RNA cleavage

B2: SIRV1 gp29: DUF1874 ring nuclease, ORF 114a of Sulfolobus islandicus rudivirus 1 (SIRV1), SEQ ID NO. 7 (protein, listed as Archael virus)
chain: MNKVYLANAFSINMLTKFPTKVVIDKIDRLEFCENIDNEDIINSIGHDSTIQLINSLCGTTFQKNRVEIKLEKEDKLYVVQISQRLEEGKILTLEEILKLYESGKVQFFEIIVD
cA4 cleavage single turnover rate constant (cA4 [1]): 7 ± 1 min⁻¹
cA4 cleavage single turnover rate constant (cA4 [1]; listed as SIRV1 gp29 (orf 114a)): 7.4 min⁻¹
degradation of cyclic-CAMP (TLC) (cyclic-CAMP): does not degrade; also recorded: does not recognise
degradation of cyclic-di-AMP (TLC) (cyclic-di-AMP): does not degrade; also recorded: does not recognise
degradation of cA4 (TLC) (cA4 [4]): rapidly degrades; also recorded: specific for the degradation
degradation of cA6 (TLC) (cA6): rapidly degrades; also recorded: specific for the degradation
degradation of cyclic-AMP (TLC) (cyclic-AMP): does not degrade
de-activation of cA4-activated HEPN nuclease Csx1 compared with cRN Sso2081 ([5]; over a range of RNA and cA4 concentrations (FIG. 4)): far more effectively
amount of A26 RNA target up to which all generated cA4 is degraded / Csx1 deactivated ([5]; ring nuclease 2 μM dimer, Csx1 0.5 μM dimer, 70° C.): up to 50 nM
degradation of cyclic-di-GMP (TLC) (cyclic-di-GMP): does not degrade; also recorded: does not recognise
amount of cA4 degraded relative to cellular ring nuclease (cA4 [6]): 100 fold
cA6 degradation: protection of substrate RNA from StCsm6′ ([3]; 2 μM pre-incubated with cA6 for 20 or 60 min at 70° C.): clear inhibition of substrate RNA cleavage
cA6 degradation: protection of substrate RNA from StCsm6′ ([3]; 2 μM pre-incubated with cA6 for 20 or 60 min at 70° C., listed as SIRV1_114a): protection of the substrate RNA

B3: Crenothrix polyspora: DUF1874 protein, sequence WP_087145848.1 from the bacterium Crenothrix polyspora, SEQ ID NO. 16 (protein, listed as Crenothrix polyspora)
chain: MTLFIINAPILTSYGDWRFEGPLSIDKTRKLLREGFTSAIGHAASAEMLARLLAMDIPVNRIAITMEAGDRALILRLLQRLPEGKVLNHHEMMATPFELALLTKLK
cA4 cleavage / ring nuclease activity in vitro (cA4 [1]): cleave cA4 rapidly

B4: B. subtilis yddf: DUF1874 protein encoded by gene yddF of Bacillus subtilis, prophage origin, SEQ ID NO. 15 (protein, listed as Archael virus)
chain: MEIAFLNSLVVTSPGFYKAEKITLDEVKQWLKHYDGRYKSFIGHKSTAQFLQKLLGIRIEQNRKTFRHMKYQKAICFSLYERYPENVLLTQRDLEKARYQFYLLTRLD
cA4 cleavage / ring nuclease activity in vitro (cA4 [1]): cleave cA4 rapidly
